Laboratory results as given in IntAct's records for PubMed 25525273.

B1: Krev interaction trapped protein 1 (Homo sapiens), O00522 (parent)
chain: MGNPENIEDAYVAVIRPKNTASLNSREYRAKSYEILLHEVPIEGQKKKRKKVLLETKLQGNSEITQGILDYVVETTKPISPANQGIRGKRVVLMKKFPLDGEKMGREASLFIVPSVVKDNTKYTYTPGCPIFYCLQDIMRVCSESSTHFATLTARMLIALDKWLDERHAQSHFIPALFRPSPLERIKTNVINPAYATESGQTENSLHMGYSALEIKSKMLALEKADTCIYNPLFGSDLQYTNRVDKVVINPYFGLGAPDYSKIQIPKQEKWQRSMSSVTEDKERQWVDDFPLHRSACEGDSELLSRLLSERFSVNQLDSDHWAPIHYACWYGKVEATRILLEKGKCNPNLLNGQLSSPLHFAAGGGHAEIVQILLNHPETDRHITDQQGRSPLNICEENKQNNWEEAAKLLKEAINKPYEKVRIYRMDGSYRSVELKHGNNTTVQQIMEGMRLSQETQQYFTIWICSENLSLQLKPYHKPLQHVRDWPEILAELTNLDPQRETPQLFLRRDVRLPLEVEKQIEDPLAILILFDEARYNLLKGFYTAPDAKLITLASLLLQIVYGNYESKKHKQGFLNEENLKSIVPVTKLKSKAPHWTNRILHEYKNLSTSEGVSKEMHHLQRMFLQNCWEIPTYGAAFFTGQIFTKASPSNHKVIPVYVGVNIKGLHLLNMETKALLISLKYGCFMWQLGDTDTCFQIHSMENKMSFIVHTKQAGLVVKLLMKLNGQLMPTERNS

Variants of: B1
Settings: with ccm2_human CCM2, Q9BSQ5
Sequence of ccm2_human CCM2, Q9BSQ5 (Q9BSQ5 whole entry): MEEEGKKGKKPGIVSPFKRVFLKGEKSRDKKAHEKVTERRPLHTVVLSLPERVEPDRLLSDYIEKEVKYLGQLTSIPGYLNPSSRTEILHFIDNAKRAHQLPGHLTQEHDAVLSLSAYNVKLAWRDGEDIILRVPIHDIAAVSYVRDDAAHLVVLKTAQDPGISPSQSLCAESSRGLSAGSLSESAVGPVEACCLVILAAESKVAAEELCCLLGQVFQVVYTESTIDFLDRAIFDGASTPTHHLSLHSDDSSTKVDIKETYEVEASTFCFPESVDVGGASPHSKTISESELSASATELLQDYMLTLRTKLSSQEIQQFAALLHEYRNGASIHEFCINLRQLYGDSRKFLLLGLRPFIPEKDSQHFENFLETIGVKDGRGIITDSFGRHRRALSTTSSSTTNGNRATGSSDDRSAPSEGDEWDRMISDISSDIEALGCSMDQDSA

effect of a mutation on the interaction | Variant
disrupting interaction strength | Y252A;F253A
decreasing interaction strength | V244L
disrupting interaction strength | V248D

Variants of: B1
Settings: with ccm2_human CCM2, Q9BSQ5
Remark: another data set of the same source

Variant | effect of a mutation on the interaction
Y195A | with no effect
F234A | with no effect

Second part, the variant after the results:

effect of a mutation on the interaction | Variant
with no effect | Y252A;F253A
decreasing interaction strength | F234A;Y252A;F253A
